Measurements taken from patent publication US20120172295A1 (INDIANA UNIVERSITY RESEARCH AND TECHNOLOGY, published 2012).
Where two headings read alike, the source gives them in different places. Starred links: 1 amine or outer side, 2 acyl side, 3 side chain; linkers in the order of their positions; H or OH if unused. Positions of bridges follow the written chain, without caps; N, C: chain ends. Non-standard residues stand in square brackets, D forms with d. Groups on a side chain read outwards from the residue. Primed or numbered codes have the meaning given here. No end group written: not given here. *: point of attachment. PEG 40 kDa = 40 kDa polyethylene glycol attached to Cys; PEG 40 kDa″ = 40 kDa polyethylene glycol; γGlu = O=C(O)[C@H](CCC(=O)[*:2])N[*:1]; Stearoyl = CCCCCCCCCCCCCCCCCC(=O)*; Palmitoyl = CCCCCCCCCCCCCCCC(=O)*; Myristoyl = CCCCCCCCCCCCCC(=O)*; Octanoyl = CCCCCCCC(=O)*; Aib = CC(C)(N)C(=O)O

Tests used:
Assay in all cases: cell-based or functional assay
GLP-1 receptor [1] = target: T1, GLP-1 receptor (UniProt P43220 24-463, limits assumed)
glucagon receptor [2] = target: T2, glucagon receptor (UniProt P47871 26-477, limits assumed)
T2 sequence (P47871 26-477 limits assumed): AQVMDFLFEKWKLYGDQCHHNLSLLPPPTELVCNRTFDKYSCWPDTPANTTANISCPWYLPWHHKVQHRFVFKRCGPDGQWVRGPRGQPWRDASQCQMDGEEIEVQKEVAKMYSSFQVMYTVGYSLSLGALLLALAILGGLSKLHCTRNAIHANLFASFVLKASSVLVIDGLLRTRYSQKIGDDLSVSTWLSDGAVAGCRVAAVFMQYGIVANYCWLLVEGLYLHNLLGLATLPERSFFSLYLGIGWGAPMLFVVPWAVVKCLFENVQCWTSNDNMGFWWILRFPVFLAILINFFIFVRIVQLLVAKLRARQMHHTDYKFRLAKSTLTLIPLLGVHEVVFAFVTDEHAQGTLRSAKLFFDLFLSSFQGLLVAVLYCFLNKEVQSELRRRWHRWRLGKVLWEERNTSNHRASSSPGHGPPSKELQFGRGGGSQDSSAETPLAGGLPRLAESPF

GLP-1 receptor [3] = target: T1, GLP-1 receptor; remark: listed apart in the source
glucagon receptor [4] = target: T2, glucagon receptor; remark: listed apart in the source
GLP-1 receptor [5] = target: T1, GLP-1 receptor; remark: listed apart in the source
glucagon receptor [6] = target: T2, glucagon receptor; remark: listed apart in the source
GLP-1 receptor [7] = target: T1, GLP-1 receptor; remark: listed apart in the source
GLP-1 receptor [8] = target: T1, GLP-1 receptor; remark: listed apart in the source
glucagon receptor [9] = target: T2, glucagon receptor; remark: listed apart in the source
GLP-1 receptor [10] = target: T1, GLP-1 receptor; remark: listed apart in the source
GLP-1 receptor [11] = target: T1, GLP-1 receptor; remark: listed apart in the source
GLP-1 receptor [12] = target: T1, GLP-1 receptor; remark: listed apart in the source
glucagon receptor [13] = target: T2, glucagon receptor; remark: listed apart in the source
GLP-1 receptor [14] = target: T1, GLP-1 receptor; remark: listed apart in the source
glucagon receptor [15] = target: T2, glucagon receptor; remark: listed apart in the source

B1: Peptide 79** (SEQ ID NO: 620) (peptide)
peptide: H[Aib]QGTFTSDK([Ala-Ala-Palmitoyl])SKYLD[Aib]RRAQDFVCWLMNT-NH2
modifications: N-terminus assumed
SMILES: CCCCCCCCCCCCCCCC(=O)N[C@@H](C)C(=O)N[C@@H](C)C(=O)NCCCC[C@H](NC(=O)[C@H](CC(=O)O)NC(=O)[C@H](CO)NC(=O)[C@@H](NC(=O)[C@H](Cc1ccccc1)NC(=O)[C@@H](NC(=O)CNC(=O)[C@H](CCC(N)=O)NC(=O)C(C)(C)NC(=O)[C@@H](N)Cc1c[nH]cn1)[C@@H](C)O)[C@@H](C)O)C(=O)N[C@@H](CO)C(=O)N[C@@H](CCCCN)C(=O)N[C@@H](Cc1ccc(O)cc1)C(=O)N[C@@H](CC(C)C)C(=O)N[C@@H](CC(=O)O)C(=O)NC(C)(C)C(=O)N[C@@H](CCCNC(=N)N)C(=O)N[C@@H](CCCNC(=N)N)C(=O)N[C@@H](C)C(=O)N[C@@H](CCC(N)=O)C(=O)N[C@@H](CC(=O)O)C(=O)N[C@@H](Cc1ccccc1)C(=O)N[C@H](C(=O)N[C@@H](CS)C(=O)N[C@@H](Cc1c[nH]c2ccccc12)C(=O)N[C@@H](CC(C)C)C(=O)N[C@@H](CCSC)C(=O)N[C@@H](CC(N)=O)C(=O)N[C@H](C(N)=O)[C@@H](C)O)C(C)C
EC50 (GLP-1 receptor [1]): 0.008 nM
EC50 (glucagon receptor [2]): 0.01 nM

HSQGTFTSDK([Glu-Palmitoyl])SKYLDERRAKDFVQWLMNT-NH2 [Peptide D (Example 22)]
EC50 (GLP-1 receptor [3]): 0.056 nM
EC50 (glucagon receptor [4]): 0.062 nM

HXQGTFTSDKSKYLDERRAKDFVQWLMNT (d-Ser at 2; Lys 10 acylated with C14; C-terminal amide) [Peptide dS2K10(C14)E16K20-Gluc Amide]
EC50 (GLP-1 receptor [5]): 0.041 nM
EC50 (glucagon receptor [6]): 0.155 nM

HSQGTFTSDK([Trp-Palmitoyl])SKYLDERRAKDFVQWLMNT-NH2 [E16 K20-glucagon-NH2 with K10-W-C16]
EC50 (GLP-1 receptor [7]): 0.05 nM

B2: Peptide 78** (SEQ ID NO: 617) (peptide)
peptide: H[Aib]QGTFTSDK([γGlu-γGlu-Myristoyl])SKYLD[Aib]RRAQDFVCWLMNT-NH2
modifications: N-terminus assumed
SMILES: CCCCCCCCCCCCCC(=O)N[C@@H](CCC(=O)N[C@@H](CCC(=O)NCCCC[C@H](NC(=O)[C@H](CC(=O)O)NC(=O)[C@H](CO)NC(=O)[C@@H](NC(=O)[C@H](Cc1ccccc1)NC(=O)[C@@H](NC(=O)CNC(=O)[C@H](CCC(N)=O)NC(=O)C(C)(C)NC(=O)[C@@H](N)Cc1c[nH]cn1)[C@@H](C)O)[C@@H](C)O)C(=O)N[C@@H](CO)C(=O)N[C@@H](CCCCN)C(=O)N[C@@H](Cc1ccc(O)cc1)C(=O)N[C@@H](CC(C)C)C(=O)N[C@@H](CC(=O)O)C(=O)NC(C)(C)C(=O)N[C@@H](CCCNC(=N)N)C(=O)N[C@@H](CCCNC(=N)N)C(=O)N[C@@H](C)C(=O)N[C@@H](CCC(N)=O)C(=O)N[C@@H](CC(=O)O)C(=O)N[C@@H](Cc1ccccc1)C(=O)N[C@H](C(=O)N[C@@H](CS)C(=O)N[C@@H](Cc1c[nH]c2ccccc12)C(=O)N[C@@H](CC(C)C)C(=O)N[C@@H](CCSC)C(=O)N[C@@H](CC(N)=O)C(=O)N[C@H](C(N)=O)[C@@H](C)O)C(C)C)C(=O)O)C(=O)O
EC50 (GLP-1 receptor [1]): 0.008 nM
EC50 (glucagon receptor [2]): 0.009 nM

H[Aib]QGTFTSDK(Palmitoyl)SKYLDEQAAKEFIC(PEG 40 kDa)WLMNT-NH2 [C16 acylated Glucagon analog peptide (SEQ ID NO: 536)]
EC50 (GLP-1 receptor [8]): 0.05 nM
EC50 (glucagon receptor [9]): 17.4 nM
EC50 (GLP-1 receptor [10]): 0.033 nM
EC50 (GLP-1 receptor [11]): 0.0127 nM

H[Aib]QGTFTSDK(Stearoyl)SKYLDEQAAKEFIC(PEG 40 kDa″)WLMNT-NH2 [C18 acylated Glucagon analog peptide (SEQ ID NO: 537)]
EC50 (glucagon receptor [9]): 8.55 nM
EC50 (GLP-1 receptor [11]): 0.0118 nM

B3: Peptide 80** (SEQ ID NO: 619) (peptide)
peptide: H[Aib]QGTFTSDK([γGlu-γGlu-Palmitoyl])SKYLD[Aib]RRAQDFVCWLMNT-NH2
modifications: N-terminus assumed
SMILES: CCCCCCCCCCCCCCCC(=O)N[C@@H](CCC(=O)N[C@@H](CCC(=O)NCCCC[C@H](NC(=O)[C@H](CC(=O)O)NC(=O)[C@H](CO)NC(=O)[C@@H](NC(=O)[C@H](Cc1ccccc1)NC(=O)[C@@H](NC(=O)CNC(=O)[C@H](CCC(N)=O)NC(=O)C(C)(C)NC(=O)[C@@H](N)Cc1c[nH]cn1)[C@@H](C)O)[C@@H](C)O)C(=O)N[C@@H](CO)C(=O)N[C@@H](CCCCN)C(=O)N[C@@H](Cc1ccc(O)cc1)C(=O)N[C@@H](CC(C)C)C(=O)N[C@@H](CC(=O)O)C(=O)NC(C)(C)C(=O)N[C@@H](CCCNC(=N)N)C(=O)N[C@@H](CCCNC(=N)N)C(=O)N[C@@H](C)C(=O)N[C@@H](CCC(N)=O)C(=O)N[C@@H](CC(=O)O)C(=O)N[C@@H](Cc1ccccc1)C(=O)N[C@H](C(=O)N[C@@H](CS)C(=O)N[C@@H](Cc1c[nH]c2ccccc12)C(=O)N[C@@H](CC(C)C)C(=O)N[C@@H](CCSC)C(=O)N[C@@H](CC(N)=O)C(=O)N[C@H](C(N)=O)[C@@H](C)O)C(C)C)C(=O)O)C(=O)O
EC50 (GLP-1 receptor [1]): 0.008 nM
EC50 (glucagon receptor [2]): 0.006 nM

HXQGTFTSDYSKYLDERRAKDFVQWLMNTK (d-Ser at 2; Lys 30 acylated with C14; C-terminal amide) [Peptide dS2E16K20K30-C14 Gluc Amide]
EC50 (GLP-1 receptor [5]): 0.84 nM
EC50 (glucagon receptor [6]): 3.53 nM

HSQGTFTSDK([Trp-Palmitoyl])SKYLDERRAKDFVC(PEG 40 kDa)WLMNT-NH2 [E16 K20-glucagon-NH2 with K10-W-C16 and C24-40K PEG (SEQ ID NO: 546)]
EC50 (GLP-1 receptor [8]): 0.23 nM
EC50 (glucagon receptor [9]): 0.54 nM
EC50 (GLP-1 receptor [12]): 0.23 nM
EC50 (glucagon receptor [13]): 0.52 nM

HSQGTFTSDK(Stearoyl)SKYLDERRAKDFVQWLMNT-NH2 [E16 K20-glucagon-NH2 with K10-C18]
EC50 (GLP-1 receptor [3]): 0.032 nM
EC50 (GLP-1 receptor [7]): 0.03 nM

H[Aib]QGTFTSDK(Octanoyl)SKYLDEQAAKEFIC(PEG 40 kDa)WLMNT-NH2 [C8 acylated Glucagon analog peptide (SEQ ID NO: 534)]
EC50 (GLP-1 receptor [10]): 0.058 nM
EC50 (GLP-1 receptor [11]): 0.0174 nM

HSQGTFTSDK([Trp-Stearoyl])SKYLDERRAKDFVC(PEG 40 kDa)WLMNT-NH2 [E16 K20-glucagon-NH2 with K10-W-C18 and C24-40K PEG (SEQ ID NO: 548)]
EC50 (GLP-1 receptor [8]): 1.64 nM
EC50 (glucagon receptor [9]): 1.29 nM
EC50 (GLP-1 receptor [12]): 1.64 nM
EC50 (glucagon receptor [13]): 1.3 nM

HSQGTFTSDK(Stearoyl)SKYLDERRAKDFVC(PEG 40 kDa)WLMNT-NH2 [E16 K20-glucagon-NH2 with K10-C18 and C24-40K PEG (SEQ ID NO: 547)]
EC50 (GLP-1 receptor [8]): 0.15 nM
EC50 (glucagon receptor [9]): 0.84 nM
EC50 (GLP-1 receptor [12]): 0.15 nM
EC50 (glucagon receptor [13]): 0.84 nM

B4: Peptide 77** (SEQ ID NO: 616) (peptide)
peptide: H[Aib]QGTFTSDK(Myristoyl)SKYLD[Aib]RRAQDFVCWLMNT-NH2
modifications: N-terminus assumed
SMILES: CCCCCCCCCCCCCC(=O)NCCCC[C@H](NC(=O)[C@H](CC(=O)O)NC(=O)[C@H](CO)NC(=O)[C@@H](NC(=O)[C@H](Cc1ccccc1)NC(=O)[C@@H](NC(=O)CNC(=O)[C@H](CCC(N)=O)NC(=O)C(C)(C)NC(=O)[C@@H](N)Cc1c[nH]cn1)[C@@H](C)O)[C@@H](C)O)C(=O)N[C@@H](CO)C(=O)N[C@@H](CCCCN)C(=O)N[C@@H](Cc1ccc(O)cc1)C(=O)N[C@@H](CC(C)C)C(=O)N[C@@H](CC(=O)O)C(=O)NC(C)(C)C(=O)N[C@@H](CCCNC(=N)N)C(=O)N[C@@H](CCCNC(=N)N)C(=O)N[C@@H](C)C(=O)N[C@@H](CCC(N)=O)C(=O)N[C@@H](CC(=O)O)C(=O)N[C@@H](Cc1ccccc1)C(=O)N[C@H](C(=O)N[C@@H](CS)C(=O)N[C@@H](Cc1c[nH]c2ccccc12)C(=O)N[C@@H](CC(C)C)C(=O)N[C@@H](CCSC)C(=O)N[C@@H](CC(N)=O)C(=O)N[C@H](C(N)=O)[C@@H](C)O)C(C)C
EC50 (GLP-1 receptor [1]): 0.063 nM
EC50 (glucagon receptor [2]): 0.144 nM

H[Aib]QGTFTSDK(Myristoyl)SKYLDEQAAKEFIC(PEG 40 kDa)WLMNT-NH2 [C14 acylated Glucagon analog peptide (SEQ ID NO: 535)]
EC50 (GLP-1 receptor [10]): 0.044 nM
EC50 (GLP-1 receptor [11]): 0.0168 nM

B5: E16 GLP(17-29)-NH2 E24, K28 Lactam (peptide)
peptide: HSQGTFTSDYSKYLDEQAAKEFIEWLVKG-NH2
modifications: lactam 24-28; N-terminus assumed
SMILES: CC[C@H](C)[C@H](NC(=O)[C@H](Cc1ccccc1)NC(=O)[C@H](CCC(=O)O)NC(=O)[C@H](CCCCN)NC(=O)[C@H](C)NC(=O)[C@H](C)NC(=O)[C@H](CCC(N)=O)NC(=O)[C@H](CCC(=O)O)NC(=O)[C@H](CC(=O)O)NC(=O)[C@H](CC(C)C)NC(=O)[C@H](Cc1ccc(O)cc1)NC(=O)[C@H](CCCCN)NC(=O)[C@H](CO)NC(=O)[C@H](Cc1ccc(O)cc1)NC(=O)[C@H](CC(=O)O)NC(=O)[C@H](CO)NC(=O)[C@@H](NC(=O)[C@H](Cc1ccccc1)NC(=O)[C@@H](NC(=O)CNC(=O)[C@H](CCC(N)=O)NC(=O)[C@H](CO)NC(=O)[C@@H](N)Cc1c[nH]cn1)[C@@H](C)O)[C@@H](C)O)C(=O)N[C@H]1CCC(=O)NCCCC[C@@H](C(=O)NCC(N)=O)NC(=O)[C@H](C(C)C)NC(=O)[C@H](CC(C)C)NC(=O)[C@H](Cc2c[nH]c3ccccc23)NC1=O
cAMP induction EC50 (GLP-1 receptor [14]): 0.007 nM
cAMP induction EC50 (glucagon receptor [15]): 0.16 nM

H[Aib]QGTFTSDKSKYLDEQAAKEFIC(PEG 40 kDa)WLMNT-NH2 [Non-acylated Glucagon analog peptide (SEQ ID NO: 580)]
EC50 (GLP-1 receptor [10]): 0.095 nM
